By EC50 is commonly meant the concentration giving half of the maximal effect. The term Kd denotes the equilibrium constant for the complex coming apart. A lower Kd goes with a tighter complex. The term koff denotes the rate constant with which the complex falls apart. The low end stands for a long-lived complex, the high end for a short-lived complex. As usually defined, the kon is a measure of how fast the partners come together. Low readings indicate slower complex formation, high ones faster complex formation. The t½ is the time needed for the level to fall by half in the phase considered. As usually defined, the IC50 is the concentration needed to halve the response being measured. High values mean weaker potency in that assay, low ones greater potency in that assay.

The record followed here is patent US20240425587A1 (Alector, published 2024).

Changes are numbered by the printed parent chain. Names and notes keep the numbering of the source. A value given as a limit tells only on which side of the number the result lay.

The chains are these.
B1: E20 (antibody, V domains shown)
VH: QIQLVQSGPELKKPGETVKISCKASGYTFTTYGMSWVKQAPGKGLKWMGWINTYSGVPTYADDFKGRFAFSLETSASTAYLQINNLKNEDTATYFCARYDGYLDYWGQGTTLTVSS
VL: DIVLTQSPASLAVSLGQRATISCKASQSVDYDGDSYMNWYQQKPGQPPKLLIYAASNLESGIPARFSGSGSGTDFTLNIHPVEEEDAATYYCQQSNEDLTFGSGTKLEIK
notes: B-cell cloning campaign (mice)
B2: B1 (antibody, V domains shown)
VH: DVKLVESGGGLVKLGGSLKLSCAASGFTFSSYYMSWVRQTPEKRLEWVAAINSNGDRSYYPDTVKGRFTISRDNAKNTLYLQMSSLKSEDTAFYYCASHGNYYGSPWFAYWGQGTLVTVSA
VL: ETTVTQSPASLSVATGEKVTIRCKTSTDIDDDMNWYQQKPGEPPKLLISEGNTLRPGVPSRFSSSGYGTDFVFTIENTLSEDVADYYCLQNDHMPLTFGGGTKLEIK
notes: as for B1
B3: D2 (antibody, V domains shown)
VH: QIQLGQSGPELKRPRETVKISCKASGYTFTTYGMSWVKQAPGKGLRWMGWINTHSGVPAYADDFKGRFAFSLETSANTAFLQINNLENEDTATYFCAKDYNWGMDYWGQGTSVIVSS
VL: QLVLTQSSSASFSLGASAKLTCTLSSQHSTYTIEWYQQQPLKPPKYVMEVKKDGSHSTGDGIPDRFSGSSSGADRYLSISNIQPEDEAIYICGVGDSIKEQFVYVFGGGTKVTVL
notes: second hybridoma campaign
B4: E12 (antibody, V domains shown)
VH: QVQLQQSGAELAKPGASVKLSCKASGYTFTSYWIHWVKQRPGQGLEWIGYINPSSGDTEYNQKFKDKATLTADKSSNTAYMQLSSLTYEDSAVYYCARSAPDDGYYDYAMDYWGQGTSVTVSS
VL: DIVMTQSRKFMSTSVGDRVSVTCKASQNVGSNVAWYQQKPGQSPKGLTYSASYRYSGVPDRFTGSGSGTDFTLTISNVQSEDLAEYFCQQYNSYPYTFGGGTKLEIK
notes: as for B1
B5: D5 (antibody, V domains shown)
VH: EVKLDETGGGLVQPGRPMKLSCVASGFTFSDYWMNWVRQSPEKGLEWVAQIRNKLYNYETYYSDSVKGRFTISRDDSKSSVYLQMNNLRAEDMGIYYCTVGLAMDYWGQGTSVTVSS
VL: DIQMTQSSSSFSVSLGDRVTITCKASEDIYNRLAWYQQKPGNAPRLLISGATSLETGVPSRFSGSGSGKEYTLNITSLQTEDVATYYCQQYWSTPTFGGGTKLEIK
notes: second hybridoma campaign
B6: E13 (antibody, V domains shown)
VH: QVQLQQPGAELVMPGASVKLSCKASGYTFTRYWIHWVRQRPGQGLEWIGEIDPSDSYTNHNQKFKDKATLTVDKSSSTAYMQLSSLTSEDSAVYFCANSNYDYWGQGTTLTVSS
VL: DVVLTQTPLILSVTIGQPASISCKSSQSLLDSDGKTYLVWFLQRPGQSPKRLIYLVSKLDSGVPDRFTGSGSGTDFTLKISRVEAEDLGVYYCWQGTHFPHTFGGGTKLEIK
notes: first hybridoma campaign
B7: C8 (antibody, V domains shown)
VH: EVQLQQSGADLVKSGASVKLSCTASGFNIKDYYIHWVKQRTAQGLEWIGRITPEDGETEYAPTFQVKATITADTSSNTAYLQLNSLTSEDTAVYYCSLGDYDVSPFAYWGQGTLVTVSA
VL: DIQMTQSPASQSASLGESVTITCLASQTIGTWLAWYQQKPGKSPQLLIYAATSLADGVPSRFSGSGSGTKFSFKISSLQAEDFVSYYCQQLYSTPYTFGGGTKLEIK
notes: first hybridoma campaign
B8: C7 (antibody, V domains shown)
VH: QVQLQQSGAELARPGTSVKLSCKASGYIFTDYAISWVKQRTGQGLQWIGEIYPGSDNAYYNENFKGKATLTADKSSNTAYMELRSLTSEDSAVYFCAKWAGSLFDFWGQGTALTVSS
VL: B4 VL with R8Q, Q27R, S31F, K39N, G46A, T48I, N77D, Q89H, K107R
notes: first hybridoma campaign

T3 sequence (chain, as listed by the source): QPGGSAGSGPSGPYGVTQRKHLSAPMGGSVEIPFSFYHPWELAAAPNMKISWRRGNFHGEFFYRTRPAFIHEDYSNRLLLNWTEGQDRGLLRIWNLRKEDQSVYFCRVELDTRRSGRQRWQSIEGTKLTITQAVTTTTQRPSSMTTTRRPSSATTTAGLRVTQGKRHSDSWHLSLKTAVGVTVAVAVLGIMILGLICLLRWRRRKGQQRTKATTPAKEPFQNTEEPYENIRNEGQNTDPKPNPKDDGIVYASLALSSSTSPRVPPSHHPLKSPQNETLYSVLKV

The target of the first test is T1, human PILRA, G78 variant, ectopically expressed on 293 cells (human, UniProt Q9UKJ1 20-303).
T1 construct: the cells are labelled G78; also called hA G78 OE; hA
T1 sequence (Q9UKJ1 other isoform, or with tags, fused parts or gaps mutant): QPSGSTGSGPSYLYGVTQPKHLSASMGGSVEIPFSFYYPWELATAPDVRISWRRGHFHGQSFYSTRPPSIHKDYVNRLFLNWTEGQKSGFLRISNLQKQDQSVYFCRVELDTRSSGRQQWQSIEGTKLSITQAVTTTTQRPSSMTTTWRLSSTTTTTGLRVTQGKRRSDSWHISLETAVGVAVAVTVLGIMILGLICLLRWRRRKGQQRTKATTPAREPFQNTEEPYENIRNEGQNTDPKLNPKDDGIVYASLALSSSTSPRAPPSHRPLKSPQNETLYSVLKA
In words: flow cytometry, 293 cells expressing target. The method, then: (§1) Briefly, conditioned media containing antibodies were incubated with 293 cells for 30 min at 4° C., washed twice, and then detected with anti-mouse IgG Alexa 647.
In turn, B1 came in with an EC50 of 33.5 µg/mL.
The same measure, in the same setting: the result for B2 reads 0.96 µg/mL.
Still for that read-out and setting: the figure for B3 is 3.4 µg/mL; for B4 it is 31 µg/mL; for B5 it is 1 µg/mL.

For a further test, the target named is T2, human PILRB, ectopically expressed on 293 cells (human, UniProt Q9UKJ0 20-227).
T2 construct: also called hB
T2 sequence (Q9UKJ0 20-227): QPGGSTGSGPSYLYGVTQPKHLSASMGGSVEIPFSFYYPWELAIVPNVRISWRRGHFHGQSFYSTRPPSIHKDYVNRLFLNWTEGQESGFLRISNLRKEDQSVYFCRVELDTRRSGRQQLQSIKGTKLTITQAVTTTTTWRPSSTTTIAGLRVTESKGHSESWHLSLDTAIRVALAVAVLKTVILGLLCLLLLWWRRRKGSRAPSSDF
The experiment in a line: flow cytometry, 293 cells expressing target. The procedure: as §1
As to B1, the binding result is “no binding”.
For B2, the binding result is “no binding”.
Turning to B3, the binding result is recorded as “no binding”.
As to B4, the binding result is “no binding”.
The same measure, in the same setting: the entry for B5 is “no binding”.

The target in a further test is T3, cynomolgus PILRA, ectopically expressed on 293 cells (cynomolgus monkey). The experiment in a line: flow cytometry, 293 cells expressing target. The procedure:
as §1
Consider B1, for which the binding result is “no binding”.
For B2, it took 2 µg/mL to reach a half-maximal effect (EC50).
As for B3, the binding result was “no binding”.
Regarding B4, the binding result is on record as “no binding”.
The same measure, in the same setting: the entry for B5 is “no binding”.

A further test deals with T4, murine PILRA, ectopically expressed on 293 cells (murine, UniProt Q2YFS3 32-302).
T4 construct: also called mA
T4 sequence (Q2YFS3 32-302): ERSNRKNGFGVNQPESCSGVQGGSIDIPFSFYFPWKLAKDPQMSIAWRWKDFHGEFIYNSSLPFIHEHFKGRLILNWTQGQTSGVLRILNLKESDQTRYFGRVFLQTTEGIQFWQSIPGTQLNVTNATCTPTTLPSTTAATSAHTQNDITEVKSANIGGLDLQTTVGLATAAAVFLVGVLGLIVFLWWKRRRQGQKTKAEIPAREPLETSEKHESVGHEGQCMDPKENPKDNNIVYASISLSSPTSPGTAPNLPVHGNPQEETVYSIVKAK
The experiment in a line: flow cytometry, 293 cells expressing target. The procedure: as §1
For B1, the binding result was “no binding”.
Same read-out and setting: the result for B2 reads “no binding”; that for B3, “no binding”; that for B4, “no binding”.
The same measure, in the same setting: the entry for B5 is “no binding”.

The target of the next test is T5, murine PILRB, ectopically expressed on 293 cells (murine, UniProt Q2YFS2 29-224).
T5 construct: whole, on cells; also called mB
T5 sequence (Q2YFS2 29-224): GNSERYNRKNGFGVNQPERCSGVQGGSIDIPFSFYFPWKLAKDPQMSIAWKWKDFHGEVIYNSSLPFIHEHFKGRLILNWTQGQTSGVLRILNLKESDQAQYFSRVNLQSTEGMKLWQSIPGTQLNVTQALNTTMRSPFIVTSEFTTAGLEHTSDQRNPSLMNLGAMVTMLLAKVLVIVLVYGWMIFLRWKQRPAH
The experiment in a line: flow cytometry, 293 cells expressing target. The procedure:
as §1
Consider B1, for which the binding result was “no binding”.
Still for that read-out and setting: the result for B2 reads “no binding”; that for B3, “no binding”.
Still for that read-out and setting: the entry for B4 is “no binding”; for B5 it is “no binding”.

The target in another test is T1, human PILRA, G78 variant, ectopically …. In words: flow cytometry, MFI relative to 293 parental cells. The method, then:
as §1
(In general: Flow cytometry measures light scatter and fluorescence of single cells or particles in a stream.)
For B6, the MFIr was 36.1.
Same read-out and setting: the result for B7 reads 44.2; that for B8, 202.

The target in the next test is T2, human PILRB, ectopically expressed on …. In words: flow cytometry, MFI relative to 293 parental cells. The procedure: as §1
For B6, the MFIr was 1.1.
In the case of B7, the MFIr amounted to 1.2.
The same measure, in the same setting: the figure for B8 is 1.2.

Another test addresses T3, cynomolgus PILRA, ectopically expressed …. In words: flow cytometry, MFI relative to 293 parental cells. The method, then: as §1
For B6, the MFIr was 0.8.
On the same count and under the same terms, the result for B7 reads 0.8; that for B8, 0.3.

The target of the next test is T4, murine PILRA, ectopically expressed on …. The experiment in a line: flow cytometry, MFI relative to 293 parental cells. The procedure:
as §1
As for B6, the MFIr was 1.
Still for that read-out and setting: the result for B7 reads 0.9.
Still for that read-out and setting: the figure for B8 is 0.3.

Another test deals with T5, murine PILRB, ectopically expressed on …. The experiment in a line: flow cytometry, MFI relative to 293 parental cells. The method, then:
as §1
B6: the MFIr turned out to be 0.8.
For the molecule B7, the MFIr was 0.8.
On the same count and under the same terms, the result for B8 reads 0.3.

For another test, the target named is T6, human PILRA, c-term His-Avi tag (human, UniProt Q9UKJ1 20-197, limits assumed).
T6 construct: not shown: C-terminal His-Avi tag
T6 sequence (Q9UKJ1 20-197 limits assumed): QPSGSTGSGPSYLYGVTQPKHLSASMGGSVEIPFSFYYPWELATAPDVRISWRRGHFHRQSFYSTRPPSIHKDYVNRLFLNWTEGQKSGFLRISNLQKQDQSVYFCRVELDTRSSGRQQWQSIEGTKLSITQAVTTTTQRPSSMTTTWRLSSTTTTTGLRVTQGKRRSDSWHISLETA
In words: SPR (Biacore), antibody captured, PILRA as analyte. In a few lines:
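Antibodies were captured at 10 μg/ml on an anti-huFc or anti-msFc CM5 surface, and human PILRA was flowed at 33, 100 and 300 nM in HBSTE/0.5% BSA, pH 7.4. The surface was regenerated with 10 mM glycine-HCl, pH 2.1, after each analyte. Curves were double-referenced with buffer injections.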
B6 had a Kd of 10.5 nM, a koff of 0.0036 s⁻¹, a kon of 340000 M⁻¹ s⁻¹ and a t½ of 3.3 min.
For the molecule B3, the Kd was below 1.3 nM, the koff was below 0.0001 s⁻¹ and the on-rate constant (kon) was 75000 M⁻¹ s⁻¹.
Take B4: binding was characterised by a dissociation constant (Kd) of 65.6 nM, the koff was found to be 0.0012 s⁻¹, the kon is 18000 M⁻¹ s⁻¹ and the t½ came out at 9.6 min.
In turn, B5 yielded a Kd of 36.8 nM, a koff of 0.0014 s⁻¹, a kon of 37000 M⁻¹ s⁻¹ and a t½ of 8.5 min.

The target of the next test is T7, PILRA Fc (soluble human PILRA) (human, UniProt Q9UKJ1 20-197, limits assumed).
T7 construct: also called soluble PILRA; not shown: Fc part, detected with anti-human IgG
T7 sequence (Q9UKJ1 20-197 limits assumed): as above
The experiment in a line: flow cytometry; blocking of PILRA Fc binding to human CD3+ T cells (Donor 1019). The method, then: (§2) The ability of conditioned media samples containing antibodies to inhibit the binding of PILRA Fc to human CD3+ T cells was assessed. Briefly, conditioned media samples containing antibodies were incubated with 1.25 ug/ml PILRA Fc for 30 min at 4° C. and then added to human T cells. After 30 minutes incubation at 4° C., cells were washed, and bound PILRA Fc was detected with anti-human IgG Alexa 647. Cells were analyzed by flow cytometry on FACS Canto II, and for all cell lines, the amount of PILRA Fc binding (MIFI) and the percentage of PILRA Fc binding in the presence of conditioned media relative to PILRA Fc binding alone was calculated. Several antibodies inhibited binding of PILRA Fc to human T cells, and a few antibodies enhanced PILRA-Fc binding to T cells. Antibodies that show enhancement in this assay may block cis inhibition to promote trans interactions or may allosterically activate to enhance trans interactions without blocking cis.
B1 showed an IC50 of 5.1 µg/mL.
The same measure, in the same setting: the figure for B2 is 2.2 µg/mL.
Same read-out and setting: the figure for B3 is 3.3 µg/mL.
Take B4: the IC50 was 2.2 µg/mL.
The same measure, in the same setting: the result for B5 reads 4.56 µg/mL.

The next test has as its target T7, PILRA Fc (soluble human PILRA). In words: flow cytometry; PILRA Fc binding to human CD3+ T cells with antibody, relative to PILRA Fc alone. The method, then: as §2
Take B6: the “% Binding” value stood at 82%.
As to B7, the “% Binding” value came to 33.2%.
On the same count and under the same terms, the result for B8 reads 8.1%.

The target of a further test is T1, human PILRA, G78 variant, ectopically …. The experiment in a line: flow cytometry; NPDC1-mIgGa binding to 293 cells expressing human PILRA G78 with antibody, relative to NPDC1 Fc alone. The procedure:
Conditioned media samples containing antibodies (10 ug/ml) were assessed for modulating the binding of Neural Proliferation Differentiation and Control Protein 1 (NPDC1) Fc to 293 cells ectopically expressing human PILRA. Briefly, conditioned media samples containing antibodies were incubated with 293 cells expressing human PILRA for 30 minutes at 4° C., and then 5 μg/ml NPDC1 Fc was added to this mixture. Where the antibodies were generated from phage panning, a NPDC1-hIgG1 ligand was used. Where the antibodies were generated from hybridomas, a NPDC1-mIgGa ligand was used. After 30 minutes incubation at 4° C., cells were washed and cell-bound NPDC1 Fc was detected with anti-human or mouse IgG Alexa 647. Cells were analyzed by flow cytometry on FACS Canto II, and for all cell lines, the percentage of NPDC1 Fc binding in the presence of conditioned media relative to NPDC1 Fc binding alone was calculated. Several antibodies decreased binding of NPDC1 to human PILRA, and a few antibodies enhanced ligand binding to human PILRA. Antibodies that show enhancement in this assay may block cis inhibition to promote trans interactions or may allosterically activate to enhance trans interactions without blocking cis.
Consider B6, for which the “% Binding” value came to 110%.
Same read-out and setting: the result for B7 reads 69.7%.
The same measure, in the same setting: the figure for B8 is 35.9%.
